The values below come from patent publication US20190309034A1 (Boehringer Ingelheim, published 2019).

The target of assay [1] is T1, Human membrane-bound BAFF (mbBAFF) (human, UniProt Q9Y275 1-285). As to the kind of experiment: cell-based or functional assay.
The target of assay [2] is T2, Recombinant soluble trimeric human BAFF (furin-cleaved human BAFF 134-285) (human, UniProt Q9Y275 134-285). Kind of assay: cell-based or functional assay.
Assay [3] deals with T2, Recombinant soluble trimeric human BAFF …. Kind of assay: cell-based or functional assay. The source holds these as a separate data set.
Assay [4] deals with Recombinant soluble 60-mer human BAFF (His-HuBAFF 134-285) (human, UniProt Q9Y275 134-285). As to the kind of experiment: cell-based or functional assay.
Assay [5] has as its target T1, Human membrane-bound BAFF (mbBAFF). As to the kind of experiment: cell-based or functional assay. This is another data set of the same source.
The target in assay [6] is T2, Recombinant soluble trimeric human BAFF …. As to the kind of experiment: cell-based or functional assay. The source holds these as a separate data set.
Assay [7] shares this target. As to the kind of experiment: SPR, antibody captured on Protein A/G, soluble trimeric BAFF flowed over, 1:1 Langmuir global fit, apparent affinity. The protocol:
Apparent binding affinities were evaluated using surface plasmon resonance where the antibodies were captured at different surface densities on a Protein A/G surface. Soluble trimeric BAFF at different concentrations were flowed over the captured antibody. Clinical reference antibodies (Reference 1 comprising SEQ ID NOS: 98 and 116) and Reference 2 comprising SEQ ID NOS: 99 and 117) were used as comparators.

B1: Reference 2 (antibody, human IgG1, lambda, V domains shown)
VH: QVQLQQSGAEVKKPGSSVRVSCKASGGTFNNNAINWVRQAPGQGLEWMGGIIPMFGTAKYSQNFQGRVAITADESTGTASMELSSLRSEDTAVYYCARSRDLLLFPHHALSPWGRGTMVTVSS
VL: SSELTQDPAVSVALGQTVRVTCQGDSLRSYYASWYQQKPGQAPVLVIYGKNNRPSGIPDRFSGSSSGNTASLTITGAQAEDEADYYCSSRDSSGNHWVFGGGTELTVLG
notes: Comparator anti-BAFF antibody
As to B1, in assay [1], the “IC50 (neutralisation of mbBAFF activation of human BAFFR, fixed mbBAFF-CHO mixed with luciferase reporter BAFFR-CHO cells)” value is 8.6 nM. For the same molecule, in assay [2], the “Soluble trimeric huBAFF (52 pM) Neutralization IC90” value was found to be 1000 pM. Moreover, the “IC50 (neutralisation of soluble trimeric huBAFF activation of human BAFFR, luciferase reporter CHO cells)” value in assay [3] was determined as 0.22 nM. Further, in assay [4], the “Soluble 60-mer huBAFF (4 pM) Neutralization IC50” value was 38300 pM and the “Soluble 60-mer huBAFF (4 pM) Neutralization IC90” value came out at 198000 pM. Also, in assay [5], the “Potent mbBAFF Neutralization IC50” value stood at 2.18 nM and the “Potent mbBAFF Neutralization IC90” value was determined as 151 nM. Moreover, the “Soluble trimeric huBAFF (50 pM) Neutralization IC90” value in assay [6] stood at 1000 pM. In addition, the Kd in assay [7] was 0.0222 nM.
